Reference: patent US20230203146A1 (Boehringer Ingelheim, published 2023)
Read-outs that look alike come from different tables or passages of the source. Blank lines part the entries; values can stand above or below the binder they belong to.

Legend:
[1] = target: T1, N-terminally FLAG-tagged mouse Ang2 (HEK293T conditioned medium) (mouse, UniProt O35608 19-496); experiment: competition ELISA, FLAG-mAng2 on coated mTie2-Fc
T1 construct: may be a nucleotide entry; also called mAng2; FLAG-mAng2
T1 sequence: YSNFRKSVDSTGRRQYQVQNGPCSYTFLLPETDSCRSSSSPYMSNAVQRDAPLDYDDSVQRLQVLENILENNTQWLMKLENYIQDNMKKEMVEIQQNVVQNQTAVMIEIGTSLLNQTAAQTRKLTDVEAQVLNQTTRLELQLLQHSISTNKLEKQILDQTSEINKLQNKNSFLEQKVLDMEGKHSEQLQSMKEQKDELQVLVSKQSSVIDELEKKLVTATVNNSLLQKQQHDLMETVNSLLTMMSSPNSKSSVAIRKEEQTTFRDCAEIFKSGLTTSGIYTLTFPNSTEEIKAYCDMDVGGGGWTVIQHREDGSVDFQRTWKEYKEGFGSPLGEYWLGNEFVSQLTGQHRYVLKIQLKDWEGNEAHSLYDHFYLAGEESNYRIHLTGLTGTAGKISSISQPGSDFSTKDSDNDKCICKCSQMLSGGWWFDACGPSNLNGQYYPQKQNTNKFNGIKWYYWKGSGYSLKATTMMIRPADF
Description: (§1) In brief, 2 μg/mL of recombinant mouse Tie2-Fc or cyno Tie2-Fc is coated overnight at 4° C. in a 96-well MaxiSorp plate (Nunc, Wiesbaden, Germany). Coated wells are blocked with a 1% casein solution.

[2] = target: T2, N-terminally FLAG-tagged cynomolgus Ang2 (HEK293T conditioned medium) (cynomolgus, UniProt O15123 19-496 (human entry), limits assumed); experiment: competition ELISA, FLAG-cAng2 on coated cTie2-Fc
T2 construct: may be a nucleotide entry; also called cAng2; FLAG-cAng2
T2 chain: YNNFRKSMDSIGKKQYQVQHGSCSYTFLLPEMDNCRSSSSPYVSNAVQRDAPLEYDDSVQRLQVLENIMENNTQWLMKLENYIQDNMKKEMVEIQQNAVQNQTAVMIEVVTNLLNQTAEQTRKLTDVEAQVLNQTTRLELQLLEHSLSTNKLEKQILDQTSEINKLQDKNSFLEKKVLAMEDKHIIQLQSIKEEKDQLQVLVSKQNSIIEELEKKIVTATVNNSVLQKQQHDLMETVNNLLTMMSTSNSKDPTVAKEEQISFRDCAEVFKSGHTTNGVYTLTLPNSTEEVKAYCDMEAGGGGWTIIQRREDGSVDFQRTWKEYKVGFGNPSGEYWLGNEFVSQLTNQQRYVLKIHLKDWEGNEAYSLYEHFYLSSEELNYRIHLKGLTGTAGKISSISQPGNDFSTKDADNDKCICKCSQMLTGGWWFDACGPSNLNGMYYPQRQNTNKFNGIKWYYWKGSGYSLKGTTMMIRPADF
Description: as §1

[3] = target: T1, N-terminally FLAG-tagged mouse Ang2 …; experiment: competition ELISA, FLAG-mAng2 on coated mTie2-Fc; remark: listed apart in the source
Description: as §1

[4] = target: T3, FLAG-tagged recombinant human Ang1 (Alexis Biochemicals) (human, UniProt Q15389 20-498, limits assumed); experiment: ratio of IC50 in hAng1/hTie2 ELISA to IC50 in hAng2/hTie2 ELISA
T3 construct: Bought reagent; also called hAng1; FLAG-hAng1
T3 sequence (looked up): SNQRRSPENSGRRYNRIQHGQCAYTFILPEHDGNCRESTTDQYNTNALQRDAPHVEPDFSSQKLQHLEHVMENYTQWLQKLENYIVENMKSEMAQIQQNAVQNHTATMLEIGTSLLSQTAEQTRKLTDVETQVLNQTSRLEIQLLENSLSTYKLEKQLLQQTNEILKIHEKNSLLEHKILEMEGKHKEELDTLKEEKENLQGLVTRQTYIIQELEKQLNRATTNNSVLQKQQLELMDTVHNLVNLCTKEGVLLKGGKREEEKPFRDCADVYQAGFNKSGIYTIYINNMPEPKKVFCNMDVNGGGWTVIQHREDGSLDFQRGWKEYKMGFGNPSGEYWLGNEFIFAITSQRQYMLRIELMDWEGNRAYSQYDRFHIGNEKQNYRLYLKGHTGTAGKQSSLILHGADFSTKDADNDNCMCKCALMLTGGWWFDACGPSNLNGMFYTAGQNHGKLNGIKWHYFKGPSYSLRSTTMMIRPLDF
Description: In brief, 2 μg/mL of Tie2/Fc chimera (R&D Systems, Minneapolis, Minn., USA) is coated in a 96-well MaxiSorp plate (Nunc, Wiesbaden, Germany).
(§2) In brief, 2 μg/mL of recombinant human Tie2-Fc (R&D Systems, Minneapolis, Minn., USA) is coated overnight at 4° C. in a 96-well MaxiSorp plate (Nunc, Wiesbaden, Germany). Coated wells are blocked with a 1% casein solution.

[5] = target: T3, FLAG-tagged recombinant human Ang1 …; experiment: competition ELISA, FLAG-hAng1 (0.02 nM) on coated hTie2-Fc
Description: as §2

[6] = target: T4, recombinant mouse Ang2-FLD (mouse, UniProt O35608 275-496, limits assumed); experiment: SPR (Biacore T100), binder on CM5 chip, Ang2-FLD as analyte
T4 construct: domain: FLD
T4 sequence (looked up): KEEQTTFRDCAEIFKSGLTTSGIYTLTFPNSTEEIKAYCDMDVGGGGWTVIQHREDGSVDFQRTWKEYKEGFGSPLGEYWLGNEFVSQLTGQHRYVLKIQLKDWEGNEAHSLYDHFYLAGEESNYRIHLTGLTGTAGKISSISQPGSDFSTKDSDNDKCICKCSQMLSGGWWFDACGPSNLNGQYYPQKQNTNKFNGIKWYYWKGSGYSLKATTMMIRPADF
Method in brief: (§3)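 Binders were immobilized by amine coupling onto a CM5 sensor chip, and Ang2-FLD from each species was passed over as analyte at 45 μL/min, with 2 min association and 20 min dissociation. Surfaces were regenerated between injections using a 10 sec 25 mM NaOH pulse and 60 sec stabilization. Rate constants came from a 1:1 Langmuir fit, and KD was derived from them.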

[7] = target: T5, recombinant human Ang2-FLD (human, UniProt O15123 275-496, limits assumed); experiment: as above
T5 construct: domain: FLD; not used
T5 sequence (looked up): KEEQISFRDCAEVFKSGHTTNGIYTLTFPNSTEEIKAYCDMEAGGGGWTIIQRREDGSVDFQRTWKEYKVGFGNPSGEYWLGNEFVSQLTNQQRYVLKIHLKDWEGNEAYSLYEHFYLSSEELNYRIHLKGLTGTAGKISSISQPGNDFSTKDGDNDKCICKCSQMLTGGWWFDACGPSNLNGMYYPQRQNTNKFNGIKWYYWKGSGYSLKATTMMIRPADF
Method in brief: as §3

[8] = target: T6, recombinant cynomolgus Ang2-FLD (cynomolgus); experiment: as above
T6 construct: domain: FLD; also called cyno Ang2-FLD
Method in brief: as §3

FLAG-tagged mouse Ang2 = target: T7, FLAG-tagged mouse Ang2 (mouse, UniProt O35608 19-496); experiment: competition ELISA: FLAG-mAng2 binding to coated mTie2-Fc
T7 construct: N-terminally FLAG-tagged, conditioned medium of HEK293T cells; also called mAng2; FLAG-mAng2
T7 sequence: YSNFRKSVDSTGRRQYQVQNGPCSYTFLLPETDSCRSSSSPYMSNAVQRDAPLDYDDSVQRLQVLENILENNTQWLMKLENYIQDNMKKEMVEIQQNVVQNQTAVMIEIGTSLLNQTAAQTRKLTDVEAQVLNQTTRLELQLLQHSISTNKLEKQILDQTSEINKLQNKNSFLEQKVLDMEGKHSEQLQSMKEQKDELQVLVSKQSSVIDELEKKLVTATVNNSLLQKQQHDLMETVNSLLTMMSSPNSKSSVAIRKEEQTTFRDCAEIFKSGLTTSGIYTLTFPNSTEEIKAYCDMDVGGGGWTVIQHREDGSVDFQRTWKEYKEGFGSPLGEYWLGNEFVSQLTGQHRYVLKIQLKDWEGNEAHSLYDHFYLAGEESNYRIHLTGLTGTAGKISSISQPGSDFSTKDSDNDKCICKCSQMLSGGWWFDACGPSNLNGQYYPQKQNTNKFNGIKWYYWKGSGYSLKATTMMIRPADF
Description: as §1

[9] = target: T8, FLAG-tagged cynomolgus Ang2 (cynomolgus, UniProt O15123 19-496 (human entry), limits assumed); experiment: competition ELISA: FLAG-cAng2 binding to coated cTie2-Fc
T8 construct: N-terminally FLAG-tagged, conditioned medium of HEK293T cells; also called cAng2; FLAG-cAng2
T8 chain: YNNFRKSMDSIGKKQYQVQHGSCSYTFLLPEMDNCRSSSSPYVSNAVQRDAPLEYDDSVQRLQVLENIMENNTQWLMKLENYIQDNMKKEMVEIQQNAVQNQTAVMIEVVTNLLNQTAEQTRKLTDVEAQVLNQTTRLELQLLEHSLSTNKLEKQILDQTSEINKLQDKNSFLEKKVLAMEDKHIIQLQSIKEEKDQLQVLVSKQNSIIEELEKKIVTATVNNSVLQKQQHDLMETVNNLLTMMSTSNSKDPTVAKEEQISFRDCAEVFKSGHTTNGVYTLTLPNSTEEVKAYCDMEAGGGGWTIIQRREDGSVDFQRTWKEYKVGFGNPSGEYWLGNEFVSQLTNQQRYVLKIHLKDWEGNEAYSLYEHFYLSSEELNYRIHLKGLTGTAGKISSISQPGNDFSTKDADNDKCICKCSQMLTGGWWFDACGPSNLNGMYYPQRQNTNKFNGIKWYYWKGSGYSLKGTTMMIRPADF
Description: as §1

[10] = target: T9, recombinant mouse Ang2-FLD (mouse, UniProt O35608 275-496, limits assumed); experiment: SPR (Biacore T100), VHH immobilized, Ang2-FLD injected
T9 construct: domain: FLD
T9 sequence (looked up): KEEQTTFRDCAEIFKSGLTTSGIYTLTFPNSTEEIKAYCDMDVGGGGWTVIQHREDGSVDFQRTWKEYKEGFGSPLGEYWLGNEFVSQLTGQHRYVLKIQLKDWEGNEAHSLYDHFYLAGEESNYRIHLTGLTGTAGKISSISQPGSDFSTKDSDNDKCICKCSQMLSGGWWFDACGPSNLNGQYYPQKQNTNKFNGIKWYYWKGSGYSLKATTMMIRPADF

[11] = target: T10, recombinant human Ang2-FLD (human, UniProt O15123 275-496, limits assumed); experiment: as above
T10 construct: domain: FLD
T10 sequence (looked up): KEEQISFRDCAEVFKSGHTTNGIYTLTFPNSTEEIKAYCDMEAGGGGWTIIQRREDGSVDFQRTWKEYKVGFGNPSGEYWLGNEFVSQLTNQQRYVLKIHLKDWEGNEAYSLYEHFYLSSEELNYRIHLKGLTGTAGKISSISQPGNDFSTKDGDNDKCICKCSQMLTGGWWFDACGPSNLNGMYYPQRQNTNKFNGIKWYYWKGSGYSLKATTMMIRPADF

[12] = target: T11, recombinant cynomolgus Ang2-FLD (cynomolgus, UniProt A0A2K5VNX6 275-496); experiment: as above
T11 construct: domain: FLD; also called cyno Ang2-FLD
T11 sequence: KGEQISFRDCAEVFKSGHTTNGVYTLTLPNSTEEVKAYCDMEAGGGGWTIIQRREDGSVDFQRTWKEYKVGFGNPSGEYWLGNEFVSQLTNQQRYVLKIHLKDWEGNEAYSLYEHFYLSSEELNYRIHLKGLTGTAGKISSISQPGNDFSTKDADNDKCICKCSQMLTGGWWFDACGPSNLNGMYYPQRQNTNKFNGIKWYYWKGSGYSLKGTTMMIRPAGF

recombinant rat Ang2-FLD = target: T12, recombinant rat Ang2-FLD (rat, UniProt O35462 275-496, limits assumed); experiment: as above
T12 construct: domain: FLD
T12 sequence (looked up): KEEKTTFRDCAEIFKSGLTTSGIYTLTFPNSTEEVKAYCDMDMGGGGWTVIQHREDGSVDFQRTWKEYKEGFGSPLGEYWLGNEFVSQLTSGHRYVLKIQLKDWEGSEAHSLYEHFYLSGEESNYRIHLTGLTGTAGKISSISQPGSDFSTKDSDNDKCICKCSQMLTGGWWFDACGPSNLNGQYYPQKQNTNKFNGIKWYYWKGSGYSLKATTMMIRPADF

- IC50 [1]: 21.4 nM
- IC50 [2]: 23.7 nM
- IC50 [3]: 5.2 nM
- hAng1/hAng2 ratio [4]: 230
- IC50 [5]: 2000 nM
- Kd [6]: 11 nM
- koff [6]: 0.026 s⁻¹
- kon [6]: 2.5e+06 M⁻¹ s⁻¹
- Kd [7]: 3.6 nM
- koff [7]: 0.021 s⁻¹
- kon [7]: 5.7e+06 M⁻¹ s⁻¹
- Kd [8]: 3.4 nM
- koff [8]: 0.023 s⁻¹
- kon [8]: 6.9e+06 M⁻¹ s⁻¹
B1: VHH 10H02 (VHH)
VHH: EVQLVESGGGSVQAGGSLRLSCAASGFTFDDYAIGWFRQAPGKEREGVSCISSSDGSTNYADSVKGRFTISSDTAKNTVYLQMNSLKPEDTAVYYCTAVPATRRTPQMVDANMCWLAEYEYDYWGQGTQVTVSS
notes: also called 010H02; not shown: C-terminal c-myc tag and His6 tag

- IC50 (FLAG-tagged mouse Ang2): 1.8 nM
- IC50 [9]: 0.7 nM
- Kd [10]: 3 nM
- koff [10]: 0.0039 s⁻¹
- kon [10]: 1.3e+06 M⁻¹ s⁻¹
- Kd [11]: 1.6 nM
- koff [11]: 0.0015 s⁻¹
- kon [11]: 950000 M⁻¹ s⁻¹
- Kd [12]: 0.54 nM
- koff [12]: 0.0012 s⁻¹
- kon [12]: 2.3e+06 M⁻¹ s⁻¹
- Kd (recombinant rat Ang2-FLD): 10 nM
- koff (recombinant rat Ang2-FLD): 0.005 s⁻¹
- kon (recombinant rat Ang2-FLD): 500000 M⁻¹ s⁻¹
B2: VHH 00919 (VHH, not shown: small tags and cut ends)
VHH: EVQLVESGGGLVQPGGSLRLSCAASGFTLDDYAIGWFRQAPGKEREGVSAIRDNGGSTYYADSVKGRFTISSDNSKNTVYLQMNSLRPEDTAVYYCAAVPAGRLRFGEQWYPLYEYDAWGQGTLVTVSS
